In assay [1] the target is T1, HLA-A*02:01/NY-ESO-1 157-165 (…) (Homo sapiens; human). The assay can be described thus: flow cytometry, A*02:01/NY157-165 dextramer staining of TCR-transduced human T cells from the blood of NSG mice.
The target in assay [2] is T1, HLA-A*02:01/NY-ESO-1 157-165 (…). The experiment in a line: flow cytometry, dextramer MFI on CD8+ Jurkat against Jurkat cells.
The target is the same in assay [3]. The experiment in a line: flow cytometry, dextramer MFI on TCR-transduced Jurkat cells.
Assay [4] deals with T2, NY-ESO-1 (CTAG1B) peptide on HLA-A*02:01 (human).
T2 peptide: SLLMWITQC
The assay can be described thus: value cited from Robbins et al. 2008 (ref 37); not measured in this filing.

For assay [5], the target named is T3, NY-ESO-1 (CTAG1B) peptide on HLA-B*07:02 (human).
T3 peptide: APRGPHGGAASGL
The assay can be described thus: cytokine release.

In assay [6] the target is T2, NY-ESO-1 (CTAG1B) peptide on HLA-A*02:01. The assay can be described thus: multimer staining.
Assay [7] addresses T1, HLA-A*02:01/NY-ESO-1 157-165 (…). The experiment in a line: cell-based or functional assay.
Assay [8] deals with HLA-B*07:02/NY-ESO-1 60-72 (Homo sapiens; human). The experiment in a line: cell-based or functional assay.
Assay [9] deals with T2, NY-ESO-1 (CTAG1B) peptide on HLA-A*02:01. The experiment in a line: cytokine release.
The target in assay [10] is T3, NY-ESO-1 (CTAG1B) peptide on HLA-B*07:02. The experiment in a line: multimer staining.
The target of assay [11] is HLA-B*18:01/NY-ESO-1 88-96 (Homo sapiens; human). The assay can be described thus: cell-based or functional assay.
The target in assay [12] is T4, NY-ESO-1 (CTAG1B) peptide on HLA-B*18:01 (human).
T4 peptide: LEFYLAMPF
The experiment in a line: multimer staining.

As to “1G4 TCR, murinized (murine TCR constant domains)”, in assay [1], the percent of transduced T cells dextramer+ worked out at 90%. For the same molecule, the fold increase of dextramer binding in the presence of CD8 in assay [2] stood at 3.8 fold. The fold increase of the intensity of dextramer binding, muTCR over parental huTCR in [3] came to 1.4 fold.
Take 1G4 TCR: in assay [4], the Kd is 9.3 µM.

B1: 3A1 TCR, murinized (murine TCR constant domains) (TCR, V domains shown)
V domain 1: GQQLNQSPQSMFIQEGEDVSMNCTSSSIFNTWLWYKQDPGEGPVLLIALYKAGELTSNGRLTAQFGITRKDSFLNISASIPSDVGIYFCAGFLDSNYQLIWGAGTKLIIKP
V domain 2: EAQVTQNPRYLITVTGKKLTVTCSQNMNHEYMSWYRQDPGLGLRQIYYSMNVEVTDKGDVPEGYKVSRKEKRNFPLILESPSPNQTSLYFCASASGYRTDTQYFGPGTRLTVLE
notes: Full-length TCR on transduced Jurkat cells or primary human T cells; Human variable regions with mouse constant regions; also called 3A1 muTCR
As for B1, in [2], the “fold increase of dextramer binding in the presence of CD8” value came out at 1.9 fold.

B2: 3A1 TCR (TCR, V domains shown)
Valpha: GQQLNQSPQSMFIQEGEDVSMNCTSSSIFNTWLWYKQDPGEGPVLLIALYKAGELTSNGRLTAQFGITRKDSFLNISASIPSDVGIYFCAGFLDSNYQLIWGAGTKLIIKP
Vbeta: EAQVTQNPRYLITVTGKKLTVTCSQNMNHEYMSWYRQDPGLGLRQIYYSMNVEVTDKGDVPEGYKVSRKEKRNFPLILESPSPNQTSLYFCASASGYRTDTQYFGPGTRLTVL
Turning to B2, the binding result in assay [5] is given as “no recognition”; in [6] it was “recognises”.

B3: 9D2 TCR, murinized (murine TCR constant domains) (TCR, V domains shown)
V domain 1: QKEVEQNSGPLSVPEGAIASLNCTYSDRGSQSFFWYRQYSGKSPELIMFIYSNGDKEDGRFTAQLNKASQYVSLLIRDSQPSDSATYLCAVDDKIIFGKGTRLHILP
V domain 2: DAGVIQSPRHEVTEMGQEVTLRCKPISGHDYLFWYRQTMMRGLELLIYFNNNVPIDDSGMPEDRFSAKMPNASFSTLKIQPSEPRDSAVYFCASSLGQPSTDTQYFGPGTRLTVLE
For B3, the “IFN-γ secretion of TCR-transduced primary T cells co-incubated with peptide-pulsed A2+ K562 cells; functional sensitivity relative to 4A2” value in assay [7] turned out to be 10 fold.

B4: 5G6 TCR (TCR, V domains shown)
Valpha: DAKTTQPNSMESNEEEPVHLPCNHSTISGTDYIHWYRQLPSQGPEYVIHGLTSNVNNRMASLAIAEDRKSSTLILHRATLRDAAVYYCILRTSGAGSYQLTFGKGTKLSVIP
Vbeta: SAVISQKPSRDICQRGTSLTIQCQVDSQVTMMFWYRQQPGQSLTLIATANQGSEATYESGFVIDKFPISRPNLTFSTLTVSNMSPEDSSIYLCSAGGAGASDTQYFGPGTRLTVL
As to B4, in assay [6], the binding result is listed as “recognises”.

B5: 1E4 TCR, murinized (murine TCR constant domains) (TCR, V domains shown)
V domain 1: KQEVTQIPAALSVPEGENLVLNCSFTDSAIYNLQWFRQDPGKGLTSLLLIQSSQREQTSGRLNASLDKSSGRSTLYIAASQPGDSATYLCAVSTAYSGGGADGLTFGKGTHLIIQP
V domain 2: DTGVSQNPRHKITKRGQNVTFRCDPISEHNRLYWYRQTLGQGPEFLTYFQNEAQLEKSRLLSDRFSAERPKGSFSTLEIQRTEQGDSAMYLCASSPPTVRVYGYTFGSGTRLTVVE
Take B5: in assay [8], the “IL-2 production of TCR-transduced Jurkat cells co-incubated with cognate target cells; fold increase of murinized over fully human TCR” value is 1.6 fold.

B6: 1E4 TCR (TCR, V domains shown)
Valpha: KQEVTQIPAALSVPEGENLVLNCSFTDSAIYNLQWFRQDPGKGLTSLLLIQSSQREQTSGRLNASLDKSSGRSTLYIAASQPGDSATYLCAVSTAYSGGGADGLTFGKGTHLIIQP
Vbeta: DTGVSQNPRHKITKRGQNVTFRCDPISEHNRLYWYRQTLGQGPEFLTYFQNEAQLEKSRLLSDRFSAERPKGSFSTLEIQRTEQGDSAMYLCASSPPTVRVYGYTFGSGTRLTVV
Take B6: the values for the binding result in assay [9] and in assay [10] were “no recognition” and “recognises”, respectively.

B7: 2B8 TCR, murinized (murine TCR constant domains) (TCR, V domains shown)
V domain 1: GQQVMQIPQYQHVQEGEDFTTYCNSSTTLSNIQWYKQRPGGHPVFLIQLVKSGEVKKQKRLTFQFGEAKKNSSLHITATQTTDVGTYFCADPNFGNEKLTFGTGTRLTIIP
V domain 2: EAQVTQNPRYLITVTGKKLTVTCSQNMNHEYMSWYRQDPGLGLRQIYYSMNVEVTDKGDVPEGYKVSRKEKRNFPLILESPSPNQTSLYFCASSLNPFATNEKLFFGSGTQLSVLE
With B7, the “IL-2 production of TCR-transduced Jurkat cells co-incubated with cognate target cells; fold increase of murinized over fully human TCR” value in [11] was found to be 18.6 fold.

B8: 2B8 TCR (TCR, V domains shown)
Valpha: GQQVMQIPQYQHVQEGEDFTTYCNSSTTLSNIQWYKQRPGGHPVFLIQLVKSGEVKKQKRLTFQFGEAKKNSSLHITATQTTDVGTYFCADPNFGNEKLTFGTGTRLTIIP
Vbeta: EAQVTQNPRYLITVTGKKLTVTCSQNMNHEYMSWYRQDPGLGLRQIYYSMNVEVTDKGDVPEGYKVSRKEKRNFPLILESPSPNQTSLYFCASSLNPFATNEKLFFGSGTQLSVL
Consider B8, for which the binding result in assay [12] is recorded as “recognises”.

The record behind these values is patent publication US20210324035A1 (University of California, published 2021).
